The source of these data is publication PMC11195947.

The series concerns His6-CusR (Pseudomonas paraeruginosa IHMA87). Nature of the series: EMSA. Conditions: apparent equilibrium constant (Keq); unphosphorylated CusR; 20 mM HEPES pH 7.9, 80 mM KCl, 20 mM MgCl2, 0.8 mM EDTA, 7.5% glycerol, 0.1 mM DTT, 25 C; 0.5 nM probe; native 5% TBE gel at 4 C.

On to “PcusR probe (pcoA2-cusR intergenic 60-mer)”, for which the Kd came out at 25 nM.
